Source: paper PMC7972335
Where “and” joins values, the source holds several entries; their conditions need not be identical. Identical values can stand only once.

How the values were obtained:
[1] = target: trimeric extracellular domain of the S protein of SARS-CoV-2 (SARS-CoV-2) (UniProt P0DTC2); experiment: cryo-EM structure; S protein incubated with PD of ACE2; three conformations
[2] = target: trypsin-digested S protein (extracellular domain of the SARS-CoV-2 S protein cleaved at S1/S2) (SARS-CoV-2); experiment: cryo-EM structure

Question: What does the source list for “peptidase domain (PD) of ACE2 (domain or fragment)”?
Answer: percent of particles in conformation 2 (one PD bound) [1]: 24.4%; percent of particles in conformation 3 (one PD bound) [1]: 67.7%; percent of particles in conformation 1 (one PD bound) [2]: 9.5%; percent of particles in conformation 2 (two PD bound) [2]: 84.5%; percent of particles in conformation 3 (two PD bound) [2]: 6%; stoichiometry N (PD per S(p) trimer) [2]: 1 and 2
